Experiments:
[1] = biological target: FITC-labeled 45-mer peptide derived from the C-terminal region of IKKβ; experiment: fluorescence polarisation; fluorescence anisotropy binding assay with the FITC-labeled IKKβ 45-mer peptide and NEMO proteins; conditions not told (refs 13, 23)
[2] = biological target: 45-mer peptide of IKKβ (as used in the CD experiments); experiment: circular dichroism (spectra and thermal denaturation with and without ligand); 10 µM NEMO protein with or without equimolar IKKβ 45-mer peptide, incubated 1 h at room temperature; 20 mM sodium phosphate, 500 mM NaCl, pH 7.4; spectra at 25 °C, melt 10 to 70 °C at 222 nm

full-length WT NEMO (aa 1–419), bacterially expressed, sequence (Q9Y6K9 whole entry, the tested form may be a part): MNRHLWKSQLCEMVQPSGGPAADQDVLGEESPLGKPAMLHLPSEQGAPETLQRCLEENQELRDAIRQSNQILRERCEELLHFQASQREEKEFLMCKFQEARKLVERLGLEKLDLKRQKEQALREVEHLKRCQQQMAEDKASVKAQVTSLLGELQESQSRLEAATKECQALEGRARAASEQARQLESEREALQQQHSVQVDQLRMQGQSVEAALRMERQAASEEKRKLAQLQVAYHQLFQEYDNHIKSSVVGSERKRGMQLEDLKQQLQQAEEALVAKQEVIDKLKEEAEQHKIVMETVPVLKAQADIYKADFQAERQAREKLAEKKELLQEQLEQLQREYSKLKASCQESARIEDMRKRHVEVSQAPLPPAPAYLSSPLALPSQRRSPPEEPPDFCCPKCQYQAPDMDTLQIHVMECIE

| Kd [1] [µM] | increase in Tm with equimolar peptide [2] [°C] | Substance |
| --- | --- | --- |
| 0.033 | 5 | NEMO 1–419 OPTN-IVD, bacterially expressed (from UniProt Q9Y6K9 1-419) (natural protein) |
| 0.0047 | 3 | full-length WT NEMO (aa 1–419), bacterially expressed (from UniProt Q9Y6K9 1-419) (natural protein) |

Source: publication doi:10.1101/2023.05.25.542299
